Data from the supplement of paper PMC10065799, “High-throughput profiling of sequence recognition by tyrosine kinases and SH2 domains using bacterial peptide display” (eLife, 2023).

Experiments:
AncSZ = assay: phosphorylation enrichment, bacterial display (enrichment ratio); higher = better substrate or ligand; peptides without Tyr show the background
EPHB1 = EPHB1 (UniProt P54762); assay: as above
EPHB2 = EPHB2 (UniProt P29323); assay: as above
FGFR1 = FGFR1 (UniProt P11362); assay: as above
FGFR3 = FGFR3 (UniProt P22607); assay: as above
FGFR3, sequence (P22607 whole entry, looked up): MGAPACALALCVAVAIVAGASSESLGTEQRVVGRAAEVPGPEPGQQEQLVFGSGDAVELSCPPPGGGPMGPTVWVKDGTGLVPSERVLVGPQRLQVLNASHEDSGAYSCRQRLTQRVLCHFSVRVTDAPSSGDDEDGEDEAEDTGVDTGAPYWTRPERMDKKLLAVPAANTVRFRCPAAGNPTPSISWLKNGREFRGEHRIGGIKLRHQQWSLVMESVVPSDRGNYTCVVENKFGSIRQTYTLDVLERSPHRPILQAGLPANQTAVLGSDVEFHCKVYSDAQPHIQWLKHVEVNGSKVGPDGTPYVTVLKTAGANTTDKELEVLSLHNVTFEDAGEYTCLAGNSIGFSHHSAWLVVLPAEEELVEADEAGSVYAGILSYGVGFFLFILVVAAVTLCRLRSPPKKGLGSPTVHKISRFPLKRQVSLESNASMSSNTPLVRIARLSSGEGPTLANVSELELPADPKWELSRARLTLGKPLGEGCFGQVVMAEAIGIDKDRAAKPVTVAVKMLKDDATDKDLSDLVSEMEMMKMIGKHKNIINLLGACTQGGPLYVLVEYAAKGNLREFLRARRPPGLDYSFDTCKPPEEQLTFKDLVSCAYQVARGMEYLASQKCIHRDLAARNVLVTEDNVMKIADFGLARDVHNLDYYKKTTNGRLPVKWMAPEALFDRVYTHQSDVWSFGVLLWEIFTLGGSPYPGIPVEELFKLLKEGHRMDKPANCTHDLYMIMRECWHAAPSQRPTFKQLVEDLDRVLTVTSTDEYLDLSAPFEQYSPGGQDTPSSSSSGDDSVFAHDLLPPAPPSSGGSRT

Fer (mouse) = assay: as above
Fes = Fes (UniProt P07332); assay: as above
Fes, sequence (P07332 whole entry, looked up): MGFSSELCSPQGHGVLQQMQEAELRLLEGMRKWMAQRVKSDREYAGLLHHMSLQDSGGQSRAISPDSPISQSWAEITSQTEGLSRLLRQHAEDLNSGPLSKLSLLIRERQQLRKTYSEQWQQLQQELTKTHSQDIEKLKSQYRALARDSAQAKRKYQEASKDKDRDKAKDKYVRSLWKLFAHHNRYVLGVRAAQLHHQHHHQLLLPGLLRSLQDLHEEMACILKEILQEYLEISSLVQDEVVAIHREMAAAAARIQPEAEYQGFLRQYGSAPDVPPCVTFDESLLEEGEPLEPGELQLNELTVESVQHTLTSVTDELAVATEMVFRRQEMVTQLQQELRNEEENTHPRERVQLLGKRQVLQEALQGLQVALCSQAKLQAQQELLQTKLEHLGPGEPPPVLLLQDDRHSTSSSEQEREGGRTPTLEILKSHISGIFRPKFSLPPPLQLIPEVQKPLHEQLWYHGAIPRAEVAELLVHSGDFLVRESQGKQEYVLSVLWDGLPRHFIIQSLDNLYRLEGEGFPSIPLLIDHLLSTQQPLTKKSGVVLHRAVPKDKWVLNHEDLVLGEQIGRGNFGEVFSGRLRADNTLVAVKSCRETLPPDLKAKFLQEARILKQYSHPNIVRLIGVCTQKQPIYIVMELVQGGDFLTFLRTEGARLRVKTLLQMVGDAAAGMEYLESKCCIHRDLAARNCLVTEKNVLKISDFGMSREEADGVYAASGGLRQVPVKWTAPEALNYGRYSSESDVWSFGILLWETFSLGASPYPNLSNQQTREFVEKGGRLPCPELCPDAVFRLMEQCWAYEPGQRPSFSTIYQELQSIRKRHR

Fyn = Fyn (UniProt P06241); assay: as above
Fyn, sequence (P06241 whole entry, looked up): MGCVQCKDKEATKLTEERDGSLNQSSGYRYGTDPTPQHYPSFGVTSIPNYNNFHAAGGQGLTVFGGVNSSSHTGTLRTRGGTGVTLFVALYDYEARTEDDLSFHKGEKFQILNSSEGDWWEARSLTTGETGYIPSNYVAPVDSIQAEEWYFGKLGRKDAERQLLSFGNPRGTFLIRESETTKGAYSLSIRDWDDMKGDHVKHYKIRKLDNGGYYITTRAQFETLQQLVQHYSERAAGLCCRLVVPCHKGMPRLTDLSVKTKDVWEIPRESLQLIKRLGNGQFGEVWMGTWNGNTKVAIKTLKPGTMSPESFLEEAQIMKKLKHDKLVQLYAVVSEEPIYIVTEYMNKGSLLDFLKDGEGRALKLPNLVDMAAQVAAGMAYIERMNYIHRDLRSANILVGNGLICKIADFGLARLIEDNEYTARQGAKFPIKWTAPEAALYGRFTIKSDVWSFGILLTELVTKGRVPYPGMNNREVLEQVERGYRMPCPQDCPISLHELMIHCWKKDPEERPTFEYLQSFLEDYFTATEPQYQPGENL

Hck = Hck (UniProt P08631); assay: as above
Hck, sequence (P08631 whole entry, looked up): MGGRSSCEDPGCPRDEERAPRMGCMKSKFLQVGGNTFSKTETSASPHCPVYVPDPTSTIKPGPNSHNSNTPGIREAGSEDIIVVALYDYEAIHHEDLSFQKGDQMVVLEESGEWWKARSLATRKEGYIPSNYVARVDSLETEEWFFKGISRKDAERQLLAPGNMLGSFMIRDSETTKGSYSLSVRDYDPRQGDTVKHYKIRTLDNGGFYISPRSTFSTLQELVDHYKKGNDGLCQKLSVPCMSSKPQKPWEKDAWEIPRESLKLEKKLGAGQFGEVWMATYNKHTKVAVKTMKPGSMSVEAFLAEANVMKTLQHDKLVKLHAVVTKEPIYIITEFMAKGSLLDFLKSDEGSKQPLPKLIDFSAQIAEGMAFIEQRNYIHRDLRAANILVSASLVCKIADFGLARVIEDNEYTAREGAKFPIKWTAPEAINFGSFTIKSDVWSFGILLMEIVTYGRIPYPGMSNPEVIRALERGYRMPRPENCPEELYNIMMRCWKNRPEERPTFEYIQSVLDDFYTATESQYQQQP

Jak2 = Jak2 (UniProt O60674); assay: as above
MERTK = MERTK (UniProt Q12866); assay: as above
c-Abl (mouse) = assay: as above
c-Src = assay: as above
Grb2 SH2 = Grb2 SH2 (UniProt P62993); assay: SH2 binding enrichment of the phosphorylated peptide, bacterial display (enrichment ratio); higher = better substrate or ligand; peptides without Tyr show the background
SHP2-C SH2 = assay: as above
c-Src SH2 = assay: as above
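Throughout, for SH2 binding enrichment of the phosphorylated peptide, bacterial display: peptide library displayed on the E. coli surface as eCPX fusions, selected cells deep-sequenced, score is each peptide's frequency after selection divided by its frequency in the input.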
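Throughout, for phosphorylation enrichment, bacterial display: 11-residue human phosphosite peptides and single-mutation variants displayed on the E. coli surface, counted by deep sequencing, each peptide's frequency after selection divided by its frequency in the unselected input library; frequency after pTyr selection over input frequency; kinase dosed for 20-30% of maximal phosphorylation in three min.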

EPHB1, sequence (P54762 whole entry, looked up): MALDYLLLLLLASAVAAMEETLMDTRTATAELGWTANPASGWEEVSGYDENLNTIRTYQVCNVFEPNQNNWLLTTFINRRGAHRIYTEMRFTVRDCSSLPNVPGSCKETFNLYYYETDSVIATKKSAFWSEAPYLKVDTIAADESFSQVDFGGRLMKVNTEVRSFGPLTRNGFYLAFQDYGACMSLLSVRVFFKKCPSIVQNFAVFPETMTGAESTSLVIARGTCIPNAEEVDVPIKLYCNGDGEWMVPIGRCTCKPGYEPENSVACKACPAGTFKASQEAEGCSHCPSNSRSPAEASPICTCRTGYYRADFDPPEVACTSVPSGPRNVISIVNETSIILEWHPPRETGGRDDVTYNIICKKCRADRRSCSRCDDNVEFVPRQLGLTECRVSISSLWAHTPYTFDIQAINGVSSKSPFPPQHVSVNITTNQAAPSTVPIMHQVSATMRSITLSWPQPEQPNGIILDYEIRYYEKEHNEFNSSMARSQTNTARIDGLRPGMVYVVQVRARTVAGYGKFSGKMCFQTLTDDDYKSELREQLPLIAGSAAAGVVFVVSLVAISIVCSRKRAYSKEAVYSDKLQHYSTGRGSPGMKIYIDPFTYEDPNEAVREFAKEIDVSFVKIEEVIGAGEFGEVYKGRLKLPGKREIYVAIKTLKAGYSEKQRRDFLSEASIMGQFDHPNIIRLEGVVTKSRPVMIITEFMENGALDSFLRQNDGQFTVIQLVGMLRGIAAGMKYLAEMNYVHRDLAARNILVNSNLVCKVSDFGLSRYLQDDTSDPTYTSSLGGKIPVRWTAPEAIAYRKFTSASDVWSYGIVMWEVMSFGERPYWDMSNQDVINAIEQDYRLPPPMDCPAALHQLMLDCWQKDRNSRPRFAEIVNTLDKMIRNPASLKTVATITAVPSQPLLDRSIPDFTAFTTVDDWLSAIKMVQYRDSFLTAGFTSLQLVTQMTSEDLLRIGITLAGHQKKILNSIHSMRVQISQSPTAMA
EPHB2, sequence (P29323 whole entry, looked up): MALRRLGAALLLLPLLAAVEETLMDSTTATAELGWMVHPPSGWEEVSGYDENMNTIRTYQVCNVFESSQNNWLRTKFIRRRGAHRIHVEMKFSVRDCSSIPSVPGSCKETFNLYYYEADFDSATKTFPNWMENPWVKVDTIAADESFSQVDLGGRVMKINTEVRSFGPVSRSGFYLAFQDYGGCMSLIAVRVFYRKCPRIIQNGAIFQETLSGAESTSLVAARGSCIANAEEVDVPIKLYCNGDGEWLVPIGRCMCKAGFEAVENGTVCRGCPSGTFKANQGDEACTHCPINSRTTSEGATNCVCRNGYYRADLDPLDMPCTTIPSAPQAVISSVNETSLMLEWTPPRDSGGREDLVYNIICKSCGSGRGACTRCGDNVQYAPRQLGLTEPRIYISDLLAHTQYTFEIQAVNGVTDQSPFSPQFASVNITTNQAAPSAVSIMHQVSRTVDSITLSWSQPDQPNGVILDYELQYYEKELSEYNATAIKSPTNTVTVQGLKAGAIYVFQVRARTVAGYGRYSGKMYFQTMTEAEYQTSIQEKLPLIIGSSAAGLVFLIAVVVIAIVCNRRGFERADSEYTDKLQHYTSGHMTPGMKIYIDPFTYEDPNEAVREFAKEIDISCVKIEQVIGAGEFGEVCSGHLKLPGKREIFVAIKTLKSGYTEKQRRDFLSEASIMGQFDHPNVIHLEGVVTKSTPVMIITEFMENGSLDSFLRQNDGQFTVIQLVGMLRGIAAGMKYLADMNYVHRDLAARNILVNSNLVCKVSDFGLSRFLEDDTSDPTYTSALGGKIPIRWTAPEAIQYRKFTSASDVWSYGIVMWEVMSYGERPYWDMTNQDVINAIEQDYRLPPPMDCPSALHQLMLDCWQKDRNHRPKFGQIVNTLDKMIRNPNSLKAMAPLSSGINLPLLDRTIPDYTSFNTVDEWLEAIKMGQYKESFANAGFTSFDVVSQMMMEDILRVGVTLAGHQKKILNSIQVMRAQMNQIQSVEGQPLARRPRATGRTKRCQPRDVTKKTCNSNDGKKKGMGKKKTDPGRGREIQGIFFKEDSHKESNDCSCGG

| Sequence | SH2 binding enrichment (Grb2 SH2) | SH2 binding enrichment (SHP2-C SH2) | SH2 binding enrichment (c-Src SH2) | phosphorylation enrichment (AncSZ) | phosphorylation enrichment (EPHB1) | phosphorylation enrichment (EPHB2) | phosphorylation enrichment (FGFR1) | phosphorylation enrichment (FGFR3) | phosphorylation enrichment (Fer (mouse)) | phosphorylation enrichment (Fes) | phosphorylation enrichment (Fyn) | phosphorylation enrichment (Hck) | phosphorylation enrichment (Jak2) | phosphorylation enrichment (MERTK) | phosphorylation enrichment (c-Abl (mouse)) | phosphorylation enrichment (c-Src) |
| --- | --- | --- | --- | --- | --- | --- | --- | --- | --- | --- | --- | --- | --- | --- | --- | --- |
| LRIAVYHEILI [CREBBP_Y1450_T1447I] | 1.1 | 0.798 | 0.954 | 5.75 | 5.55 | 3.56 | 5.94 | 6.95 | 2.45 | 4.93 | 3.37 | 2.74 | 4.19 | 1.62 | 2.93 | 2.29 |
| GISDEYHVIRH [GCDH_Y398] | 0.827 | 0.606 | 0.941 | 0.917 | 0.458 | 0.475 | 4.48 | 2.26 | 0.405 | 0.69 | 0.64 | 0.962 | 0.633 | 0.339 | 0.569 | 0.664 |
| KDGSGYISAAE [CALM1_Y100_N98S] | 0.715 | 0.816 | 0.465 | 0.648 | 0.388 | 0.409 | 0.456 | 0.496 | 0.369 | 0.82 | 0.476 | 0.444 | 0.6 | 0.464 | 0.544 | 0.4 |
| GDKENYGLPQP [BUB1_Y538_N534D] | 0.866 | 0.742 | 0.518 | 0.873 | 0.509 | 0.794 | 0.452 | 0.567 | 0.419 | 0.859 | 0.461 | 0.469 | 0.715 | 0.432 | 0.632 | 0.433 |
| FPSLPYSPVSS [CAMKK2_Y128_C123Y_YF] | 0.857 | 0.863 | 0.672 | 0.789 | 0.452 | 0.445 | 0.539 | 0.592 | 2.1 | 0.707 | 0.479 | 0.59 | 0.526 | 0.489 | 0.507 | 0.457 |
| TVFENYVADIE [RHOA_Y42] | 0.798 | 0.618 | 0.541 | 1.42 | 0.647 | 0.664 | 0.642 | 0.925 | 0.513 | 1.15 | 0.58 | 0.588 | 1.46 | 0.631 | 0.861 | 0.521 |
| MTRDIYRASYY [ALK_Y1278_A1274T] | 0.876 | 0.704 | 0.786 | 0.725 | 0.598 | 0.579 | 0.844 | 0.676 | 0.462 | 0.702 | 0.888 | 1.17 | 0.63 | 0.827 | 2.42 | 1.66 |
| SLQAHYDTPRS [DOK7_Y405_R402Q] | 0.916 | 0.636 | 5.05 | 0.513 | 0.435 | 0.479 | 0.352 | 0.38 | 0.593 | 0.539 | 0.366 | 0.37 | 0.53 | 0.529 | 3.19 | 0.368 |
| YGLQAYTKVKT [ALDH2_Y502_E504K] | 0.811 | 2.67 | 1.85 | 1.26 | 0.445 | 0.462 | 0.45 | 0.679 | 0.427 | 1.08 | 0.357 | 0.377 | 1.23 | 0.414 | 0.614 | 0.435 |
| EIIPFYGMSSY [FNDC3B_Y175_T179S] | 0.855 | 0.828 | 6.51 | 0.877 | 0.6 | 0.77 | 0.489 | 0.672 | 0.933 | 0.914 | 0.777 | 0.967 | 0.748 | 0.728 | 0.587 | 0.616 |
| TYTVSYLPDMS [FLNC_Y1602] | 0.792 | 0.623 | 0.375 | 1.05 | 0.528 | 0.705 | 0.512 | 0.656 | 0.491 | 0.874 | 0.568 | 0.582 | 0.903 | 0.733 | 0.55 | 0.561 |
| GEDEPYSEPYA [APBA1_Y183] | 0.903 | 0.742 | 0.582 | 1.35 | 0.542 | 0.673 | 0.516 | 0.756 | 0.618 | 1.19 | 0.55 | 0.477 | 1.15 | 0.531 | 0.845 | 0.551 |
| LKGQVYILVRE [ASS1_Y359_G362V] | 0.878 | 0.896 | 0.525 | 1.43 | 0.682 | 0.652 | 0.481 | 0.982 | 0.328 | 1.36 | 0.343 | 0.454 | 1.14 | 0.375 | 0.921 | 0.334 |
| VEKGSYSALRA [ABCC2_Y845_L849R] | 0.823 | 1.04 | 0.555 | 0.43 | 0.348 | 0.296 | 0.356 | 0.396 | 0.338 | 0.551 | 0.34 | 0.351 | 0.551 | 0.325 | 0.438 | 0.314 |

Continued, in another order:

| SH2 binding enrichment (Grb2 SH2) | SH2 binding enrichment (SHP2-C SH2) | SH2 binding enrichment (c-Src SH2) | Sequence | phosphorylation enrichment (AncSZ) | phosphorylation enrichment (EPHB1) | phosphorylation enrichment (EPHB2) | phosphorylation enrichment (FGFR1) | phosphorylation enrichment (FGFR3) | phosphorylation enrichment (Fer (mouse)) | phosphorylation enrichment (Fes) | phosphorylation enrichment (Fyn) | phosphorylation enrichment (Hck) | phosphorylation enrichment (Jak2) | phosphorylation enrichment (MERTK) | phosphorylation enrichment (c-Abl (mouse)) | phosphorylation enrichment (c-Src) |
| --- | --- | --- | --- | --- | --- | --- | --- | --- | --- | --- | --- | --- | --- | --- | --- | --- |
| 0.776 | 0.548 | 0.515 | MFQVQYNSSVD [LRFN1_Y458_YF] | 0.859 | 0.486 | 0.432 | 0.425 | 0.581 | 0.514 | 0.86 | 0.394 | 0.436 | 0.771 | 0.398 | 0.566 | 0.373 |
| 0.791 | 0.472 | 0.44 | DHAGMYGLGDR [MAPT_Y18_T17M] | 0.556 | 0.348 | 0.541 | 0.391 | 0.393 | 0.388 | 0.558 | 0.523 | 0.471 | 0.45 | 0.371 | 0.411 | 0.454 |
| 0.715 | 0.679 | 0.52 | VSSSDYFSFVL [USP24_Y2138_Y2134S] | 3.42 | 4.7 | 3.25 | 12.3 | 10.5 | 1.1 | 1.66 | 5.34 | 2.49 | 8.84 | 4.39 | 4.78 | 7.49 |
| 0.885 | 0.943 | 0.848 | PTDGVYVMPTV [MYO7A_Y1668_S1666G] | 6.14 | 2.01 | 1.48 | 2.95 | 2.52 | 0.789 | 1.21 | 14 | 6.35 | 1.3 | 11.7 | 4.76 | 7.86 |
| 1.01 | 0.65 | 0.574 | INMKEYCKKDF [NTN1_Y490_K489E_YF] | 0.877 | 0.66 | 0.678 | 0.512 | 0.743 | 0.427 | 1.12 | 0.669 | 0.498 | 0.937 | 0.468 | 0.791 | 0.476 |
| 1.06 | 1.21 | 0.657 | DEEPPYRGPFC [SASH1_Y551] | 0.863 | 0.509 | 0.396 | 0.525 | 0.656 | 0.434 | 0.895 | 0.437 | 0.389 | 0.697 | 0.332 | 0.673 | 0.493 |
| 1.19 | 0.862 | 0.554 | RTESQYQENRG [LRCH3_Y354_R350T] | 0.792 | 0.675 | 0.414 | 0.499 | 0.591 | 0.539 | 1 | 0.578 | 0.653 | 1.26 | 0.688 | 0.799 | 0.557 |
| 0.862 | 1.03 | 0.865 | MGSFNYLGFPR [SPTLC2_Y178_A182P_YF] | 0.795 | 1.88 | 0.917 | 0.566 | 0.534 | 0.418 | 0.983 | 0.44 | 0.403 | 1.68 | 0.518 | 0.584 | 0.615 |
| 1.05 | 0.812 | 0.483 | TKGMIYGGGGG [PSME1_Y249] | 0.494 | 0.339 | 0.416 | 0.457 | 0.377 | 0.431 | 0.505 | 0.49 | 0.556 | 0.501 | 0.433 | 0.613 | 0.535 |
| 0.969 | 0.763 | 0.78 | AKGMKYVASKK [MET_Y1194_L1195V] | 0.451 | 0.301 | 0.276 | 0.415 | 0.356 | 0.322 | 0.548 | 0.339 | 0.425 | 0.5 | 0.349 | 0.451 | 0.381 |
| 0.947 | 1.07 | 0.553 | AFLEDYFTSTK [SRC_Y522_E527K] | 1.1 | 0.378 | 0.492 | 0.639 | 0.774 | 0.356 | 0.97 | 0.474 | 0.52 | 1.26 | 0.504 | 0.591 | 0.463 |
| 0.62 | 0.696 | 0.419 | AEYGLYGAMVW [VSX2_Y222_R227W] | 1.45 | 1.33 | 4 | 0.521 | 0.86 | 4.58 | 1.37 | 6.22 | 5.32 | 1.25 | 2.66 | 1.1 | 4.49 |
| 0.763 | 0.598 | 0.41 | FSKDIYKRVTG [PANK2_Y405_N404I_YF] | 0.516 | 0.218 | 0.382 | 0.431 | 0.413 | 0.355 | 0.58 | 0.444 | 0.423 | 0.407 | 0.334 | 0.529 | 0.398 |
| 0.738 | 0.543 | 0.485 | ESDFPYSSSFE [SRPK2_Y427_T426P_YF] | 1.1 | 0.437 | 0.502 | 0.619 | 0.692 | 0.531 | 1.1 | 0.511 | 0.47 | 0.942 | 0.462 | 0.642 | 0.823 |
| 0.811 | 0.772 | 0.575 | EIRTQDEAMAS [GFAP_Y242_Y242D] | 0.688 | 0.515 | 0.42 | 0.498 | 0.57 | 0.353 | 0.755 | 0.43 | 0.443 | 0.945 | 0.457 | 0.489 | 0.408 |
| 0.854 | 0.664 | 0.517 | AKLNIYKRKVE [VWA3B_Y918] | 0.486 | 0.309 | 0.305 | 0.331 | 0.422 | 0.34 | 0.504 | 0.53 | 0.307 | 0.603 | 0.448 | 0.91 | 0.4 |
| 0.901 | 0.587 | 0.461 | DRLASYPDKVR [KRT14_Y129_L130P] | 0.508 | 0.354 | 0.356 | 0.417 | 0.391 | 0.373 | 0.516 | 0.371 | 0.387 | 0.508 | 0.383 | 0.482 | 0.372 |
| 0.878 | 0.859 | 0.746 | GHEYIYVDRMQ [PDGFRB_Y581_P584R] | 0.891 | 0.796 | 0.546 | 5.2 | 3.24 | 0.472 | 0.695 | 1.94 | 1.44 | 0.644 | 0.48 | 0.607 | 2.62 |
| 0.836 | 0.761 | 0.623 | QSHKVYFQHLL [POR_Y604_V605F] | 1.14 | 0.671 | 0.503 | 0.622 | 0.915 | 0.698 | 1.52 | 0.473 | 0.598 | 1.22 | 0.725 | 0.991 | 0.663 |
